Experimental findings from publication PMC4361889 are described below.

The assay deals with Taliglucerase alfa (recombinant GCase) (human) (UniProt P04062). Briefly: AUC.

As to “Taliglucerase alfa (recombinant GCase) (from UniProt P04062 40-536) (enzyme)”, the population of the dimer species was determined as 47% and the stoichiometry N stood at 2.
